The target in assay [1] is T1, EGF receptor (on A431 cells) (UniProt P00533 25-1210, limits assumed).
T1 construct: whole, on cells; also called EGF receptors
Put plainly: flow cytometry on A431 cells; Fab detected with anti-His antibody and APC-labeled anti-mouse antibody. As to the method:
(§1) Unbound scFv proteins were removed by washing following centrifugation (repeated 2-3 times). […] After two washes, the cells were incubated with an APC-labeled (allophycocyanin) anti-mouse antibody (10 ug/ml) for 30 minutes on ice. After washing the cells two times to remove the secondary antibody, the cells were re-suspended in FACS buffer supplemented with propidium iodine (0.5 ug/ml), and analyzed by flow cytometry. […] Fab binding was detected using an anti-His antibody followed by an APC-labeled anti-mouse secondary antibody.
PEGylation of the Fab fragments results in a minimal decrease in the affinity of the fragments to the EGF receptors. Binding conditions were as described previously.
A general note: Flow cytometry measures light scatter and fluorescence of single cells or particles in a stream.

Assay [2] has as its target T1, EGF receptor (on A431 cells). As to the kind of experiment: competition flow cytometry on A431 cells against mAb-108 (7.5 nM). As for the experimental part: as §1
(§2) Cells were incubated with the scFv proteins at various concentrations after washing to remove unbound scFv's, and the cells were treated with the mAb108 as described above. All proteins were expressed in the periplasm. Table 11 summarizes the binding of the modified scFv's (pAcF and pAcF with PEG) relative to the wild type scFv: […]

Assay [3] shares this target. As to the kind of experiment: Flow cytometry competition on A431 cells expressing EGF receptors: cells incubated with the scFv at varied concentration and washed, then mAb108 (competitor, 7.5 nM) detected with APC-labeled anti-mouse antibody; y axis Median. As to the method: as §1, §2

B1: Fab-108 wild type (Fab)
light: TMELEIHMTQTTSSLSASLGDRVTISCSASQDIRNYLNWYQQKPDGTVKLLIYYTSTLHSGVPSRFSGSGSGTDYSLTISNLEPEDIATYYCQQYSKIPYTFTGGTKLEIKRADAAKLEIKRTVAAPSVFIFPPSDEQLKSGTASVVCLLNNFYPREAKVQWKVDNALQSGNSQESVTEQDSKDSTYSLSSTLTLSKADYEKHKVYACEVTHQGLSSPVTKSFNRGEC
heavy: QVQLLEQVQLQQSGAELMKPGASVKISCKATGYTFSSYWIEWVKQRPGHGLEWIGEILPGSKKTNYNEKFKGKATFTADTSSNTAYMQFSSLTSEDSAVYYCARYYYRNDDYGMDYWGQGTSVTVSSAGPSVFPLAPSSKSTSGGTAALGCLVKDYFPEPVTVSWNSGALTSGVHTFPAVLQSSGLYSLSSVVTVPSSSLGTQTYICNVNHKPSNTKVDKKVEPKSCDKHHHHHH
notes: they may include leaders; also called WT Fab; Fab108 WT
As to B1, in assay [1], the EC50 (as a rule, the concentration needed to bring the measured effect to its halfway point) amounted to 4 nM and the “EC50 relative to wild type Fab” value stood at 1 x.

B2: pAcF-scFv-108-(S136) (scFv)
scFv: QVQLQQSGAELMKPGASVKISCKATGYTFSSYWIEWVKQRPGHGLEWIGEILPGSKKTNYNEKFKGKATFTADTSSNTAYMQFSSLTSEDSAVYYCARYYYRNDDYGMDYWGQGTSVTVSSGGGGSGGGGSGGGGXGGGGSEIHMTQTTSSLSASLGDRVTISCSASQDIRNYLNWYQQKPDGTVKLLIYYTSTLHSGVPSRFSGSGSGTDYSLTISNLEPEDIATYYCQQYSKIPYTFTGGTKLEIKRADAAEQKLISEEDLNSAVDHHHHHH
modifications: p-acetyl-phenylalanine (pAcF) in place of Ser136
notes: X stands for pAcF; also called Ser136pAcF; pAcF-scFv-(S136)
B2: in assay [2], the “IC50 relative to wild type scFv” value was determined as 1.6 x. Further, in assay [3], the IC50 – broadly, the concentration that inhibits the measured activity by half – was determined as 13.1 nM.

B3: pAcF-scFv-108-(L156) conjugated to 5K PEG (scFv)
scFv: QVQLQQSGAELMKPGASVKISCKATGYTFSSYWIEWVKQRPGHGLEWIGEILPGSKKTNYNEKFKGKATFTADTSSNTAYMQFSSLTSEDSAVYYCARYYYRNDDYGMDYWGQGTSVTVSSGGGGSGGGGSGGGGSGGGGSEIHMTQTTSSLSASXGDRVTISCSASQDIRNYLNWYQQKPDGTVKLLIYYTSTLHSGVPSRFSGSGSGTDYSLTISNLEPEDIATYYCQQYSKIPYTFTGGTKLEIKRADAAEQKLISEEDLNSAVDHHHHHH
modifications: p-acetyl-phenylalanine (pAcF) in place of Leu156, conjugated to mono-functional hydroxylamine 5K PEG
notes: also called Leu156pAcF-5K PEG
Take B3: in assay [2], the “IC50 relative to wild type scFv” value was determined as 2.9 x.

B4: scFv-108 Tyr190pAcF (scFv)
scFv: QVQLQQSGAELMKPGASVKISCKATGYTFSSYWIEWVKQRPGHGLEWIGEILPGSKKTNYNEKFKGKATFTADTSSNTAYMQFSSLTSEDSAVYYCARYYYRNDDYGMDYWGQGTSVTVSSGGGGSGGGGSGGGGSGGGGSEIHMTQTTSSLSASLGDRVTISCSASQDIRNYLNWYQQKPDGTVKLLIXYTSTLHSGVPSRFSGSGSGTDYSLTISNLEPEDIATYYCQQYSKIPYTFTGGTKLEIKRADAAEQKLISEEDLNSAVDHHHHHH
modifications: p-acetyl-phenylalanine (pAcF) in place of Tyr190
notes: X stands for pAcF
B4: the “IC50 relative to wild type scFv” value in assay [2] is 2.1 x.

B5: pAcF-scFv-108-(S136) conjugated to 5K PEG (scFv)
scFv: QVQLQQSGAELMKPGASVKISCKATGYTFSSYWIEWVKQRPGHGLEWIGEILPGSKKTNYNEKFKGKATFTADTSSNTAYMQFSSLTSEDSAVYYCARYYYRNDDYGMDYWGQGTSVTVSSGGGGSGGGGSGGGGXGGGGSEIHMTQTTSSLSASLGDRVTISCSASQDIRNYLNWYQQKPDGTVKLLIYYTSTLHSGVPSRFSGSGSGTDYSLTISNLEPEDIATYYCQQYSKIPYTFTGGTKLEIKRADAAEQKLISEEDLNSAVDHHHHHH
modifications: p-acetyl-phenylalanine (pAcF) in place of Ser136, conjugated to mono-functional hydroxylamine 5K PEG
notes: also called Ser136pAcF-5K PEG
Turning to B5, the “IC50 relative to wild type scFv” value in assay [2] amounted to 6.3 x. The same molecule returned an IC50 in assay [3] of 51 nM.

B6: pAcF-scFv-108-(S131) (scFv)
scFv: QVQLQQSGAELMKPGASVKISCKATGYTFSSYWIEWVKQRPGHGLEWIGEILPGSKKTNYNEKFKGKATFTADTSSNTAYMQFSSLTSEDSAVYYCARYYYRNDDYGMDYWGQGTSVTVSSGGGGSGGGGXGGGGSGGGGSEIHMTQTTSSLSASLGDRVTISCSASQDIRNYLNWYQQKPDGTVKLLIYYTSTLHSGVPSRFSGSGSGTDYSLTISNLEPEDIATYYCQQYSKIPYTFTGGTKLEIKRADAAEQKLISEEDLNSAVDHHHHHH
modifications: p-acetyl-phenylalanine (pAcF) in place of Ser131
notes: S131 is the second serine of the GlySer linker; X stands for pAcF; also called Ser131pAcF; S131Am
Take B6: the “IC50 relative to wild type scFv” value in assay [2] amounted to 1.3 x.

B7: scFv-108 His144pAcF (scFv)
scFv: QVQLQQSGAELMKPGASVKISCKATGYTFSSYWIEWVKQRPGHGLEWIGEILPGSKKTNYNEKFKGKATFTADTSSNTAYMQFSSLTSEDSAVYYCARYYYRNDDYGMDYWGQGTSVTVSSGGGGSGGGGSGGGGSGGGGSEIXMTQTTSSLSASLGDRVTISCSASQDIRNYLNWYQQKPDGTVKLLIYYTSTLHSGVPSRFSGSGSGTDYSLTISNLEPEDIATYYCQQYSKIPYTFTGGTKLEIKRADAAEQKLISEEDLNSAVDHHHHHH
modifications: p-acetyl-phenylalanine (pAcF) in place of His144
notes: X stands for pAcF
As to B7, in assay [2], the “IC50 relative to wild type scFv” value came to 2.6 x.

B8: pAcF-scFv-108-(S131) conjugated to 5K PEG (scFv)
scFv: QVQLQQSGAELMKPGASVKISCKATGYTFSSYWIEWVKQRPGHGLEWIGEILPGSKKTNYNEKFKGKATFTADTSSNTAYMQFSSLTSEDSAVYYCARYYYRNDDYGMDYWGQGTSVTVSSGGGGSGGGGXGGGGSGGGGSEIHMTQTTSSLSASLGDRVTISCSASQDIRNYLNWYQQKPDGTVKLLIYYTSTLHSGVPSRFSGSGSGTDYSLTISNLEPEDIATYYCQQYSKIPYTFTGGTKLEIKRADAAEQKLISEEDLNSAVDHHHHHH
modifications: p-acetyl-phenylalanine (pAcF) in place of Ser131, conjugated to mono-functional hydroxylamine 5K PEG
notes: also called Ser131pAcF-5K PEG
Consider B8, for which, in assay [2], the “IC50 relative to wild type scFv” value was determined as 5 x.

B9: pAcF-scFv-108-(L156) (scFv)
scFv: QVQLQQSGAELMKPGASVKISCKATGYTFSSYWIEWVKQRPGHGLEWIGEILPGSKKTNYNEKFKGKATFTADTSSNTAYMQFSSLTSEDSAVYYCARYYYRNDDYGMDYWGQGTSVTVSSGGGGSGGGGSGGGGSGGGGSEIHMTQTTSSLSASXGDRVTISCSASQDIRNYLNWYQQKPDGTVKLLIYYTSTLHSGVPSRFSGSGSGTDYSLTISNLEPEDIATYYCQQYSKIPYTFTGGTKLEIKRADAAEQKLISEEDLNSAVDHHHHHH
modifications: p-acetyl-phenylalanine (pAcF) in place of Leu156
notes: L156 lies in the VL chain; X stands for pAcF; also called Leu156pAcF
For the molecule B9, in assay [2], the “IC50 relative to wild type scFv” value amounted to 1.8 x.

B10: scFv-108 wild type (periplasmic, VH-(GGGGS)4-VL-myc-6xHis) (scFv)
scFv: QVQLQQSGAELMKPGASVKISCKATGYTFSSYWIEWVKQRPGHGLEWIGEILPGSKKTNYNEKFKGKATFTADTSSNTAYMQFSSLTSEDSAVYYCARYYYRNDDYGMDYWGQGTSVTVSSGGGGSGGGGSGGGGSGGGGSEIHMTQTTSSLSASLGDRVTISCSASQDIRNYLNWYQQKPDGTVKLLIYYTSTLHSGVPSRFSGSGSGTDYSLTISNLEPEDIATYYCQQYSKIPYTFTGGTKLEIKRADAAEQKLISEEDLNSAVDHHHHHH
notes: also called WT scFv
Take B10: in assay [2], the IC50 stood at 8.1 nM and the “IC50 relative to wild type scFv” value is 1 x.

B11: scFv-108 Ser259pAcF (scFv)
scFv: QVQLQQSGAELMKPGASVKISCKATGYTFSSYWIEWVKQRPGHGLEWIGEILPGSKKTNYNEKFKGKATFTADTSSNTAYMQFSSLTSEDSAVYYCARYYYRNDDYGMDYWGQGTSVTVSSGGGGSGGGGSGGGGSGGGGSEIHMTQTTSSLSASLGDRVTISCSASQDIRNYLNWYQQKPDGTVKLLIYYTSTLHSGVPSRFSGSGSGTDYSLTISNLEPEDIATYYCQQYSKIPYTFTGGTKLEIKRADAAEQKLIXEEDLNSAVDHHHHHH
modifications: p-acetyl-phenylalanine (pAcF) in place of Ser259
notes: X stands for pAcF
As to B11, the “IC50 relative to wild type scFv” value in assay [2] is 0.5 x.

B12: scFv-108 Ser193pAcF (scFv)
scFv: QVQLQQSGAELMKPGASVKISCKATGYTFSSYWIEWVKQRPGHGLEWIGEILPGSKKTNYNEKFKGKATFTADTSSNTAYMQFSSLTSEDSAVYYCARYYYRNDDYGMDYWGQGTSVTVSSGGGGSGGGGSGGGGSGGGGSEIHMTQTTSSLSASLGDRVTISCSASQDIRNYLNWYQQKPDGTVKLLIYYTXTLHSGVPSRFSGSGSGTDYSLTISNLEPEDIATYYCQQYSKIPYTFTGGTKLEIKRADAAEQKLISEEDLNSAVDHHHHHH
modifications: p-acetyl-phenylalanine (pAcF) in place of Ser193
notes: X stands for pAcF
On to B12, for which the “IC50 relative to wild type scFv” value in assay [2] came out at 1.8 x.

B13: scFv-108 Lys248pAcF (scFv)
scFv: QVQLQQSGAELMKPGASVKISCKATGYTFSSYWIEWVKQRPGHGLEWIGEILPGSKKTNYNEKFKGKATFTADTSSNTAYMQFSSLTSEDSAVYYCARYYYRNDDYGMDYWGQGTSVTVSSGGGGSGGGGSGGGGSGGGGSEIHMTQTTSSLSASLGDRVTISCSASQDIRNYLNWYQQKPDGTVKLLIYYTSTLHSGVPSRFSGSGSGTDYSLTISNLEPEDIATYYCQQYSKIPYTFTGGTKLEIXRADAAEQKLISEEDLNSAVDHHHHHH
modifications: p-acetyl-phenylalanine (pAcF) in place of Lys248
notes: X stands for pAcF
On to B13, for which the “IC50 relative to wild type scFv” value in assay [2] was 2.1 x.

The values above are taken from patent US20080050374A1 (AMBRX, published 2008).
